Measurements published in patent US20250011391A1, “ULTRA LIGHT-SENSITIVE NEUROPSIN-BASED OPTOGENETIC TOOL FOR ACTIVATING G q-COUPLED SIGNALING AND/OR ACTIVATING CELLS” (GENANS BIOTECHNOLOGY CO., LTD, priority 2021, published 2025).

Tests used:
[1] = test system: Gq signaling in HEK 293T cells; experiment: Light-induced Ca2+ signal (Calbryte 630 AM dye) in opsin-expressing HEK 293T cells; format: cell-based; conditions: for Light Sensitivity / Response amplitude: Ca2+ response amplitude: Table 8
Procedure: (§1) Whether heterologous expression of the Opn5 orthologs from chicken, turtles, humans and mice (which share 80-90% protein sequence identity) have the capacity to mediate blue light-induced Gq signaling activation within HEK 293T cells is tested (FIG. 1a and table 7). Blue light for stimulation and the red intracellular calcium indicator Calbryte™ 630 AM dye are used to monitor the relative Ca^2+ response (FIG. 1b).
b, Pseudocolor images of the Ca2+ signal before and after blue light stimulation (10 s; 100 μW/mm^2; 488 nm) in HEK 293T cells expressing Opn5 from three species (Gallus gallus, Homo sapiens, and Mus musculus). Scale bar, 10 μm.
Characterizing the light-activating properties of cOpn5 heterologously expressed in HEK 293T cells is performed. […] The effects of different light durations on cOpn5-expressing HEK 293T cells are tested. […] Therefore, the light sensitivity of cOpn5 is 3-4 orders of magnitude higher than the reported values of the light-sensitive Gq-coupled GPCRs and even 2-3 orders higher than those of the commonly used optogenetic tool Channelrhodopsin-2 (ChR2)(Lin, 2011; Zhang et al., 2006) (table 8).
The performance of cOpn5 to that of opto-a1AR, a chimera GPCR engineered by mixing rhodopsin with Gq-coupled adrenergic receptor is compared. […] The performance of cOpn5 to that of opn4, a natural opsin which was reported as a tool for Gq signaling activating is also compared. […] Therefore, compared with existing opsin-based tools (opto-a1AR and opn4), cOpn5 is much more light-sensitive (˜3 orders more sensitive), requires much shorter time exposure (10 ms vs. 60 s), and produces stronger responses. […]
Experiments description: the following table 9 is a partial list of cOpn5 orthologs from vertebrata tested in the present invention. Whole genes of all reported opsin5 orthologs from vertebrata (the vertebrates subphylum, including rotundia, cartilaginous fishes, bony fishes, Amphibia, reptila, ornitha and mammals) are synthetized, and expressed in HEK 293T cells. Calcium imaging with or without 470 nm blue light stimulation is performed to test the sensitivity of the opsin 5 orthologs in response to light. The time course of light-induced calcium signal reveal the activated degree of Gq signaling pathway and the sensitivity of these orthologs.

[2] = test system: Gq signaling in HEK 293T cells; experiment: IP1 accumulation in Opn5-expressing HEK 293T cells; format: cell-based; conditions: continuous light 3 min; 100 μW/mm2; 470 nm
Procedure: as §1
f, YM suppressed the IP1 accumulation evoked by continuous light stimulation (3 min; 100 μW/mm^2; 470 nm) in cOpn5-expressing HEK 293T cells (Left). ***P<0.0001, *P=0.0128; Tukey's multiple comparisons test.

[3] = test system: astrocytes within the mouse S1 cortex; experiment: In vivo two-photon imaging (920 nm) of ATP release (GRABATP sensor) following astrocyte activation
Procedure: The performance of cOpn5-mediated optogenetics in vivo is tested. Astrocytes represent an important population of non-excitable cells in the central nervous system, over which optogenetic tools have achieved only limited success to date^42. ATP is known as a messenger for inter-astrocyte communication; however, the real-time impacts of intracellular Ca^2+ on ATP release have not been visualized. Ultrasensitive GPCR Activation-Based ATP sensor GRABATP is used to monitor changes in extracellular ATP levels. Specifically, cOpn5 and the GRABATP sensor are expressed in the mouse S1 sensory cortex following the infusion of AAV vectors containing the GfaABC1D promoter (FIG. 6a), which is commonly used to drive gene expression in astrocytes.
Two-photon imaging of GRABATP signals from head-fixed awake, behaving mice is performed (FIG. 6a). It is initially expected that, in addition to the 920 nm light from pulsed laser for two-photon imaging, blue light pulses would be required to stimulate ATP signals. Strikingly, the 920 nm light itself, delivers for imaging, triggered massive ATP flashes in the cOpn5- and GRABATP-expressing mice, but not in mice that expressed the ATP sensor but lacked cOpn5 expression. Individual ATP flashes typically range in diameters of 20-100 μm and lasted for ˜1 min. The flash frequency gradually increases following ˜1 min of initial quiescence and peaked at the level of ˜50 flashes per min within the imaging area (640×640 μm^2) in ˜5 min (FIG. 6b, c and FIG. 7a). Moreover, high-frequency ATP flashes also occurs in the repeated trials (FIG. 7b).
a, Schematic diagram of the experimental setup for in vivo two-photon imaging (920 nm) of ATP release following cOpn5-mediated astrocyte activation. Images show the expression of cOpn5 (red) in astrocytes and the expression of a GRABATP sensor (green) in astrocytes within the mouse S1 cortex. Scale bar, 100 μm.

[4] = test system: neurons in slice preparations of the motor cortex, hippocampus, and dorsal striatum; experiment: Whole-cell patch-clamp recording of cOpn5-expressing neurons in slices; format: cell-based, mouse
Source text: The effect of light-induced cOpn5 activation on the electrophysiological properties of neurons in slice preparations of the motor cortex, hippocampus, and dorsal striatum is next investigated (FIG. 8d). Two types of activation patterns are observed. In a majority of recorded neurons, blue light pulses induce a small depolarizing current (˜20 pA) in the voltage-clamp mode, and induce delayed-yet-vigorous firing of action potentials in the current-clamp mode (FIG. 8e, left, n=12 neurons). […] In the other subset of neurons, brief light pulses rapidly evoked strong inward currents (100-1000 pA) and drove bursting firing of action potentials (FIG. 8e, right, n=6 neurons). […] Of note, unlike generated by ChR2 optogenetics^53, the action potential evoked by cOpn5 photostimulation is not time-locked to light pulses.
d, Schematic diagram depicts optogenetic stimulation and whole-cell patch-clamp recording of cOpn5-expressing neurons in the cortex, striatum and hippocampus.

[5] = 10 ms 16 μW/mm2 470 nm, mean±S.E.M., n=10 cells
[6] = cOpn5- and GRABATP-expressing mice, 920 nm light

B1: cOpn5: Chicken (Gallus gallus) Opn5 (neuropsin) ortholog, SEQ ID NO:1, GenBank NM_001130743.1 (protein, listed as Gallus lafayetii)
chain: MSGMASDCNSSSQEEYLPHYVQQEDPFASKLSREADIIAGFYLTVIGILSTLGNGYVIFMSSKRKKKLRPAEIMTVNLAVCDLGISVVGKPFSIISFFSHRWIFGWMGCRWYGWAGFFFGCGSLITMTAVSLDRYLKICHLAYGTWLKRHHAFICLALIWAYATFWATVPFAGVGSYAPEPFGTSCTLDWWLAQASVAGQAFVLSILFFCLLFPTAVIVFSYVKIILKVKSSTKEVAHYDTRIQNSHILEMKLTKVAMLICAGFLIAWIPYAVVSVWSAFGQPDSVPIQFSVVPTLLAKSAAMYNPIIYQVIDCKFACCRSGGPKTLQKKSSLKESRMYTLSSHRDSAALSGTQLEV
In the case of B1, the “light sensitivity higher than reported values of Channelrhodopsin-2 (ChR2)” value [1] is reported as 2-3 orders of magnitude, the “light sensitivity higher than reported values of light-sensitive Gq-coupled GPCRs” value [1] is reported as 3-4 orders of magnitude and the “more light-sensitive than opto-a1AR and opn4” value [1] is reported as roughly 3 orders. For the same molecule, the “10% peak activation time of Ca2+ signal” value [1, 5] was 1.36 ± 0.55 s, the “90% peak activation time of Ca2+ signal” value [1, 5] was 2.37 ± 0.87 s and the “decay time τ of Ca2+ signal” value [1, 5] was 18.66 ± 4.98 s. For the same molecule, the “Ca2+ signals without extracellular Ca2+” value ([1]; 10 ms, 16 μW/mm2, 470 nm) was “resistant to the removal of extracellular Ca^2+”, the “light duration at which Ca2+ response achieves saturation” value ([1]; 16 μW/mm2, 470 nm) was “over 10 ms” and the “Ca2+ response to longer-wavelength visible light (561 nm or above)” value ([1]; 100 μW/mm2) was “completely ineffective”. For the same molecule, the “Ca2+ response to UVA light (365 and 395 nm)” value ([1]; 100 μW/mm2, versus 470 nm) was “less effective”, the “light intensity producing about half maximum response” value ([1]; 470 nm, 10 ms) was roughly 4.8 μW/mm^2 and the “light intensity producing full maximum response / full activation” value ([1]; 470 nm, 10 ms) was 16 μW/mm^2. The “light duration required for full activation” value ([1]; 470 nm, 16 μW/mm2) was 10 ms, the “Light Sensitivity” value ([1]; HEK 293T cells, 10 ms stimulation, response ~3.0 ΔF/F) was 16 μW/mm^2 and the “Response amplitude: Ca2+ response amplitude” value ([1]; HEK 293T cells, 470 nm, 0.026 μW/mm2, >2 s) was ~1 (ΔE/F). For the same molecule, the “Light Sensitivity” value ([1]; HEK 293T cells, >2 s stimulation, response ~1) was 0.026 μW/mm^2, the “Response amplitude: Ca2+ response amplitude” value ([1]; HEK 293T, light as in the row's sensitivity and duration columns) was ~3.0 (ΔF/F) and the “light-induced increase in Ca2+ signal” value ([1]; blue light 10 s, 100 μW/mm2, 488 nm, no exogenous retinal) was ~3 ΔF/F. The “peak amplitudes of Ca2+ signals” value ([1]; cOpn5-expressing cells, 10 ms blue light pulses at 16 μW/mm2) was 3-8 ΔF/F, the “more rapid than opto-a1AR or opn4 (temporal resolution)” value ([1]; in response to 10 ms light pulses) was ~3 orders of magnitude and the “response kinetics versus hM3Dq-expressing cells” value ([1]; light 10 s vs CNO puff 100 nM 10 s) was “faster and temporally more precise response”. The “wavelength eliciting the strongest Ca2+ transients” value ([1]; wavelengths 365-630 nm at fixed 100 μW/mm2) was 470 nm, the “light-induced increase in the level of inositol phosphate (IP1)” value [2] was “light-induced increase” and the “initial quiescence before flash frequency increases” value ([3]; cOpn5- and GRABATP-expressing mice) was roughly 1 min. The “diameter of individual ATP flashes” value [3, 6] was 20-100 μm, the “duration of individual ATP flashes” value [3, 6] was roughly 1 min and the “time to peak ATP flash frequency” value ([3]; cOpn5-expressing mice) was roughly 5 min. The “ATP flash frequency versus proinflammatory (LPS) treatment of non-cOpn5-expressing mice” value ([3]; mouse, in vivo) was roughly 25 times, the two-photon activation wavelength ([3]; pulsed laser for two-photon imaging) was no less than 920 nm and the “peak ATP flash frequency” value ([3]; within the imaging area (640×640 μm2), cOpn5-expressing mice) was roughly 50 flashes per min. For the same molecule, the “firing rate of neurons after pulsed 473 nm light stimulation” value ([4]; 1 Hz, 5 s, n=18) was “increased”, the “firing rate across repetitive trials of light stimulation” value ([4]; 10 ms/pulse at 10 Hz) was “non-attenuated” and the “spike latency after the initial light pulse, higher frequencies of light pulses” value ([4]; majority-type neurons) was roughly 3 s. The “spike latency after the initial light pulse, lower frequency of light pulses” value ([4]; majority-type neurons) was roughly 5 s, the “inward currents evoked by brief light pulses” value ([4]; other subset of neurons (n=6)) was 100-1000 pA and the “depolarizing current induced by blue light pulses” value ([4]; voltage-clamp, majority of recorded neurons (n=12)) was roughly 20 pA.
